In paper PMC9545174 (2022) one finds koff data, which are given here for two molecules.

By koff is commonly meant the rate constant with which the complex falls apart. Read a low koff as a long-lived complex.

The assay has as its target wildtype SARS-CoV-2 RBD Protein (SARS-CoV-2, UniProt P0DTC2 319-541). As to the kind of experiment: SPR. (In general: Surface plasmon resonance follows binding to a sensor surface in real time, without labels.)

B1: 18-4A (antibody, V domains shown)
VH: QVQLQQSGPGLVKPSQTLSLTCAISGDSVSNNSAAWNWIRQSPSRGLEWLGRTYYRSKWYNDYAVSVSSRITINPDTSKNQFSLQLNSVTPEDTAVYYCAREGALLWFGEGAFDYWGQGTLVTVSS
VL: EIVLTQSPGTLSLSPGERATLSCRASHIVSSSYLAWYQQKPGQAPRFLIYGASSRATGIPDRFSGSGSGTDFTLTISRLEPEDFAVYYCQQYAGSPFTFGPGTKVDIK
As for B1, the koff worked out at 0.000134 s⁻¹.

B2: 11-2G (antibody, V domains shown)
VH: QVQLQQAGPGLVKPSQTLSLTCAISGDSVSNNSAIWNWIRQSPSRGLEWLGRTYYRSKWYNDYAVSVSSRITINPDTSKNQFSLQLNSVTPEDTAVYYCARVDILTGYSFDYWGQGTLVTVSS
VL: EIVLTQSPGTLSLSPGERATLSCRASQSVSSSFLAWYQQKPGQAPRFLIYGESYRATGIPDRFSGSGSGTDFTLTISRLEPEDFAVYYCQQYGSSLTFGGGTKVEIK
B2: the koff was 0.000568 s⁻¹. Compared with the last molecule, the koff is about 4.2-fold higher.
